Consider ten molecules from US20030118612A1 (MAXYGEN, published 2003).

First the molecules themselves.
T1: human G-CSF receptor (human, UniProt Q99062 25-836)
T1 sequence (looked up): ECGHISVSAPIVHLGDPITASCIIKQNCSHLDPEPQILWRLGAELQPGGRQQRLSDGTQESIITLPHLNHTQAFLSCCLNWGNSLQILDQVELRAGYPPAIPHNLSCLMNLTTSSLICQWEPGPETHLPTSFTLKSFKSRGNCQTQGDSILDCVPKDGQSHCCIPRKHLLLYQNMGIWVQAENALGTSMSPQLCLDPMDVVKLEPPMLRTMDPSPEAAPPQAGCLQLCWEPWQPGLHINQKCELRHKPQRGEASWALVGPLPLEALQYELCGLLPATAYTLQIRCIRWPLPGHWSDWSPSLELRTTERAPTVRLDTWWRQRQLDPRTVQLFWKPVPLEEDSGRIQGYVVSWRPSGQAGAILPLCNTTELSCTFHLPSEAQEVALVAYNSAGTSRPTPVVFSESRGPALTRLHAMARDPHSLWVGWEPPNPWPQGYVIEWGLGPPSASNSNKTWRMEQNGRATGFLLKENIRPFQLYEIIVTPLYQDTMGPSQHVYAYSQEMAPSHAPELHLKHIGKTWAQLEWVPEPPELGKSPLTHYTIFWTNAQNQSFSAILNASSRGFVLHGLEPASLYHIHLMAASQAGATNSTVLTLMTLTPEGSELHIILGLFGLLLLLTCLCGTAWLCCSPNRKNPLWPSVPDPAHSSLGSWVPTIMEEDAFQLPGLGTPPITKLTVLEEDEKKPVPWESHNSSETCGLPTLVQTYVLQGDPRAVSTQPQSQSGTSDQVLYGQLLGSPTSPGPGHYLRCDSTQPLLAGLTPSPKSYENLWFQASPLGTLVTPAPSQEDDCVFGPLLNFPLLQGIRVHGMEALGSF

B1: G-CSF without N-terminal Histidine tag, non-conjugated (ligand)
chain: TPLGPASSLPQSFLLKCLEQVRKIQGDGAALQEKLCATYKLCHPEELVLLGHSLGIPWAPLSSCPSQALQLAGCLSQLHSGLFLYQGLLQALEGISPELGPTLDTLQLDVADFATTIWQQMEELGMAPALQPTQGAMPAFASAFQRRAGGVLVASHLQSFLEVSYRVLRHLAQP
B2: G-CSF variant K16/23/34/40R conjugated to SPA-PEG 5000 (ligand)
chain: TPLGPASSLPQSFLLRCLEQVRRIQGDGAALQERLCATYRLCHPEELVLLGHSLGIPWAPLSSCPSQALQLAGCLSQLHSGLFLYQGLLQALEGISPELGPTLDTLQLDVADFATTIWQQMEELGMAPALQPTQGAMPAFASAFQRRAGGVLVASHLQSFLEVSYRVLRHLAQP
modifications: SPA-PEG 5000 conjugated to the available PEGylation sites
B3: G-CSF variant K16/23/40R, non-conjugated (ligand)
chain: TPLGPASSLPQSFLLRCLEQVRRIQGDGAALQEKLCATYRLCHPEELVLLGHSLGIPWAPLSSCPSQALQLAGCLSQLHSGLFLYQGLLQALEGISPELGPTLDTLQLDVADFATTIWQQMEELGMAPALQPTQGAMPAFASAFQRRAGGVLVASHLQSFLEVSYRVLRHLAQP
B4: G-CSF variant K16/23/40R conjugated to SPA-PEG 5000 (ligand)
chain: TPLGPASSLPQSFLLRCLEQVRRIQGDGAALQEKLCATYRLCHPEELVLLGHSLGIPWAPLSSCPSQALQLAGCLSQLHSGLFLYQGLLQALEGISPELGPTLDTLQLDVADFATTIWQQMEELGMAPALQPTQGAMPAFASAFQRRAGGVLVASHLQSFLEVSYRVLRHLAQP
modifications: SPA-PEG 5000 conjugated to the available PEGylation sites
B5: G-CSF variant K16/40R conjugated to SPA-PEG 5000 (ligand)
chain: TPLGPASSLPQSFLLRCLEQVRKIQGDGAALQEKLCATYRLCHPEELVLLGHSLGIPWAPLSSCPSQALQLAGCLSQLHSGLFLYQGLLQALEGISPELGPTLDTLQLDVADFATTIWQQMEELGMAPALQPTQGAMPAFASAFQRRAGGVLVASHLQSFLEVSYRVLRHLAQP
modifications: SPA-PEG 5000 conjugated to the available PEGylation sites
B6: G-CSF variant K16/23/34/40R, non-conjugated (ligand)
chain: TPLGPASSLPQSFLLRCLEQVRRIQGDGAALQERLCATYRLCHPEELVLLGHSLGIPWAPLSSCPSQALQLAGCLSQLHSGLFLYQGLLQALEGISPELGPTLDTLQLDVADFATTIWQQMEELGMAPALQPTQGAMPAFASAFQRRAGGVLVASHLQSFLEVSYRVLRHLAQP
B7: G-CSF variant K16/34/40R, non-conjugated (ligand)
chain: TPLGPASSLPQSFLLRCLEQVRKIQGDGAALQERLCATYRLCHPEELVLLGHSLGIPWAPLSSCPSQALQLAGCLSQLHSGLFLYQGLLQALEGISPELGPTLDTLQLDVADFATTIWQQMEELGMAPALQPTQGAMPAFASAFQRRAGGVLVASHLQSFLEVSYRVLRHLAQP
B8: G-CSF variant K16/23/34R conjugated to SPA-PEG 5000 (ligand)
chain: TPLGPASSLPQSFLLRCLEQVRRIQGDGAALQERLCATYKLCHPEELVLLGHSLGIPWAPLSSCPSQALQLAGCLSQLHSGLFLYQGLLQALEGISPELGPTLDTLQLDVADFATTIWQQMEELGMAPALQPTQGAMPAFASAFQRRAGGVLVASHLQSFLEVSYRVLRHLAQP
modifications: SPA-PEG 5000 conjugated to the available PEGylation sites
B9: G-CSF variant K16/34/40R conjugated to SPA-PEG 5000 (ligand)
chain: TPLGPASSLPQSFLLRCLEQVRKIQGDGAALQERLCATYRLCHPEELVLLGHSLGIPWAPLSSCPSQALQLAGCLSQLHSGLFLYQGLLQALEGISPELGPTLDTLQLDVADFATTIWQQMEELGMAPALQPTQGAMPAFASAFQRRAGGVLVASHLQSFLEVSYRVLRHLAQP
modifications: SPA-PEG 5000 conjugated to the available PEGylation sites
B10: G-CSF variant K16/23/34R, non-conjugated (ligand)
chain: TPLGPASSLPQSFLLRCLEQVRRIQGDGAALQERLCATYKLCHPEELVLLGHSLGIPWAPLSSCPSQALQLAGCLSQLHSGLFLYQGLLQALEGISPELGPTLDTLQLDVADFATTIWQQMEELGMAPALQPTQGAMPAFASAFQRRAGGVLVASHLQSFLEVSYRVLRHLAQP

The assay has as its target T1, human G-CSF receptor. Put plainly: cell-based or functional assay.
As for B1, the “EC50 (% of hG-CSF) non-conjugated” value is 100 % of hG-CSF.

In the case of B2, the “EC50 (% of hG-CSF) conjugated to SPA-PEG 5000” value (from here on “EC50 (% of hG-CSF) conjugated”) was 15 % of hG-CSF.

With B3, the “EC50 (% of hG-CSF) non-conjugated” value was 50 % of hG-CSF.

With B4, the “EC50 (% of hG-CSF) conjugated” value is 5 % of hG-CSF.

Consider B5, for which the “EC50 (% of hG-CSF) conjugated” value was 5 % of hG-CSF.

For B6, the “EC50 (% of hG-CSF) non-conjugated” value was 20 % of hG-CSF.

For B7, the “EC50 (% of hG-CSF) non-conjugated” value was 35 % of hG-CSF.

In the case of B8, the “EC50 (% of hG-CSF) conjugated” value was 10 % of hG-CSF.

Turning to B9, the “EC50 (% of hG-CSF) conjugated” value is 30 % of hG-CSF.

As for B10, the “EC50 (% of hG-CSF) non-conjugated” value was 50 % of hG-CSF.
